The source of these data is US20240391950A1, “PEPTIDE CROSSLINKING AGENT AND CROSSLINKED PEPTIDE WHICH IS CROSSLINKED USING SAID CROSSLINKING AGENT” (Kagoshima University, priority 2020, published 2024).

Positions of bridges follow the written chain, without caps; N, C: chain ends. No end group written: not given here.

The target of test [1] is human IgG1 (human). Kind of test: SPR, BIAcore T200, IgG immobilised on CM5 chip, peptide as analyte.
Test [2] concerns the target human serum-derived IgG (manufactured by Sigma-Aldrich Co. LLC). Nature of the test: 1 mL column with 1 mg peptide immobilised, human serum IgG; 1 wash with 0.1 N NaOH.
The target is the same in test [3]. Kind of test: 1 mL column with 1 mg peptide immobilised, human serum IgG; 5 washes with 0.1 N NaOH.
Test [4] concerns the target human IgG1 (human). Nature of the test: SPR, BIAcore T200, IgG immobilised on CM5 chip; the text value differs from Table 1 (8.0).
Test [5] addresses human serum-derived IgG (manufactured by Sigma-Aldrich Co. LLC). Nature of the test: 1 mL column with 1 mg peptide immobilised, human serum IgG, 10% breakthrough; 1 wash with 0.1 N NaOH.
For test [6] the target is unchanged. Kind of test: 1 mL column with 1 mg peptide immobilised, human serum IgG 1 mg/mL at 1 mL/min; 1 wash with 0.1 N NaOH.
Test [7] shares this target. Kind of test: 1 mL column with 1 mg peptide immobilised, human serum IgG, 10% breakthrough; 5 washes with 0.1 N NaOH.
The target is the same in test [8]. Kind of test: 1 mL column with 1 mg peptide immobilised, human serum IgG 1 mg/mL at 1 mL/min; 5 washes with 0.1 N NaOH.
Test [9] addresses human IgG1 (human). Kind of test: SPR, BIAcore T200, IgG immobilised on CM5 chip.
In test [10] the target is human serum-derived IgG (manufactured by Sigma-Aldrich Co. LLC). Nature of the test: peptide-immobilised column, human serum IgG, 10% breakthrough.
Test [11] has the same target. Nature of the test: 1 mL column with 1 mg peptide immobilised, human serum IgG; 2 washes with 0.1 N NaOH.
Test [12] has the same target. Kind of test: 1 mL column with 1 mg peptide immobilised, human serum IgG; 3 washes with 0.1 N NaOH.
Test [13] has the same target. Kind of test: 1 mL column with 1 mg peptide immobilised, human serum IgG; 4 washes with 0.1 N NaOH.
Test [14] has the same target. Kind of test: 1 mL column with 1 mg peptide immobilised, human serum IgG; 10 washes with 0.1 N NaOH.
Test [15] has the same target. Kind of test: 1 mL column with 1 mg peptide immobilised, human serum IgG; 20 washes with 0.1 N NaOH.
Test [16] has the same target. Nature of the test: 1 mL column with 1 mg peptide immobilised, human serum IgG; 30 washes with 0.1 N NaOH.
Test [17] shares this target. Nature of the test: 1 mL column with 1 mg peptide immobilised, human serum IgG, 10% breakthrough; 2 washes with 0.1 N NaOH.
For test [18] the target is unchanged. Kind of test: 1 mL column with 1 mg peptide immobilised, human serum IgG, 10% breakthrough; 3 washes with 0.1 N NaOH.
The target is the same in test [19]. Kind of test: 1 mL column with 1 mg peptide immobilised, human serum IgG, 10% breakthrough; 4 washes with 0.1 N NaOH.
Test [20] has the same target. Kind of test: 1 mL column with 1 mg peptide immobilised, human serum IgG, 10% breakthrough; 10 washes with 0.1 N NaOH.
The target is the same in test [21]. Kind of test: 1 mL column with 1 mg peptide immobilised, human serum IgG, 10% breakthrough; 20 washes with 0.1 N NaOH.
The target is the same in test [22]. Kind of test: 1 mL column with 1 mg peptide immobilised, human serum IgG, 10% breakthrough; 30 washes with 0.1 N NaOH.
Test [23] has the same target. Nature of the test: 1 mL column with 1 mg peptide immobilised, human serum IgG 1 mg/mL at 1 mL/min; 2 washes with 0.1 N NaOH.
Test [24] shares this target. Nature of the test: 1 mL column with 1 mg peptide immobilised, human serum IgG 1 mg/mL at 1 mL/min; 3 washes with 0.1 N NaOH.
Test [25] shares this target. Nature of the test: 1 mL column with 1 mg peptide immobilised, human serum IgG 1 mg/mL at 1 mL/min; 4 washes with 0.1 N NaOH.
Test [26] has the same target. Kind of test: 1 mL column with 1 mg peptide immobilised, human serum IgG 1 mg/mL at 1 mL/min; 10 washes with 0.1 N NaOH.
Test [27] has the same target. Kind of test: 1 mL column with 1 mg peptide immobilised, human serum IgG 1 mg/mL at 1 mL/min; 20 washes with 0.1 N NaOH.
Test [28] has the same target. Nature of the test: 1 mL column with 1 mg peptide immobilised, human serum IgG 1 mg/mL at 1 mL/min; 30 washes with 0.1 N NaOH.

With GSGGSGPDCAYHRGELVWCTFH (disulfide 9-19 (inferred); not fully specified) [IgG-BP-LongGS, original IgG-binding peptide having a disulfide bond (GSGGS-…)], the Kd in the test with human IgG1 (human) [1] amounted to 8 nM; with human IgG1 (human) [4], 8.2 nM. The results for the Variation (%) in maximum binding capacity in test [2] and in test [3] were 100% and 49.2%, respectively. Further, the Dynamic binding capacity worked out at 17.2 mg/mL in test [5] and 8.74 mg/mL in test [7]. The Variation (%) in dynamic binding capacity in [5] was determined as 100%; in test [7], 50.7%. Further, the Maximum binding capacity in [6] is 12.4 mg; in test [8], 6.09 mg.

B1: 1,1-dichloroacetone-crosslinked cyclic peptide of IgG-BP-LongGS (peptide)
peptide: GSGGSGPDCAYHRGELVWCTFH
modifications: not fully specified; the thiol groups of the two Cys residues crosslinked with 1,1-dichloroacetone (1,1-Dichloro-2-propanone) in place of the disulfide bond; Fmoc removed
In turn, B1 yielded a fold reduction of affinity against the original peptide in the test with human IgG1 (human) [9] of 5 fold. The same molecule displayed a DBC relative to the original IgG-binding peptide-immobilized column in test [10] of 74%. In the test with human IgG1 (human) [1], this molecule showed a Kd of 45.6 nM. For the same molecule, the Variation (%) in maximum binding capacity in [2] was determined as 100%; in test [11], 100%; in [12], 102%; in test [13] it was 104%; in test [3], 103%; in test [14], 96.3%. In addition, the Variation (%) in maximum binding capacity was 86.3% in test [15] and 90.7% in [16]. Besides, the Dynamic binding capacity in test [5] amounted to 12.8 mg/mL; in [17] it was 12.8 mg/mL; in [18], 12.2 mg/mL; in test [19], 12.2 mg/mL; in test [7] it was 12.4 mg/mL; in test [20] it was 12.2 mg/mL. Also, the Dynamic binding capacity in [21] stood at 12.4 mg/mL; in test [22], 11.6 mg/mL. The Variation (%) in dynamic binding capacity was found to be 100% in test [5]; 100% in test [17]; 95.3% in [18]; 95.3% in test [19]; 96.9% in test [7]; 95.3% in [20]. Also, the Variation (%) in dynamic binding capacity in [21] worked out at 96.9%; in test [22] it was 90.6%. Besides, the Maximum binding capacity turned out to be 9.68 mg in [6]; 9.7 mg in test [23]; 9.88 mg in [24]; 10.1 mg in test [25]; 9.93 mg in [8]; 9.32 mg in test [26]. Moreover, the values for the Maximum binding capacity in test [27] and in test [28] were 8.35 mg and 8.78 mg, respectively.

B2: 1,1-dichloropinacolin-crosslinked cyclic peptide of IgG-BP-LongGS (peptide)
peptide: GSGGSGPDCAYHRGELVWCTFH
modifications: the thiol groups of the two Cys residues crosslinked with 1,1-dichloropinacolin in place of the disulfide bond; Fmoc removed
B2 registered a fold reduction of affinity against the original peptide with human IgG1 (human) [9] of 14 fold. Also, the DBC relative to the original IgG-binding peptide-immobilized column in [10] worked out at 96%. For the same molecule, in the test with human IgG1 (human) [1], the Kd worked out at 112 nM. In addition, the Variation (%) in maximum binding capacity in test [2] stood at 100%; in test [11], 99.8%; in test [3], 89.8%; in test [14] it was 87.1%. Besides, the Dynamic binding capacity in [5] is 16.7 mg/mL; in test [17], 17.2 mg/mL; in test [7], 16.2 mg/mL; in [20] it was 14.5 mg/mL. The Variation (%) in dynamic binding capacity in test [5] is 100%; in test [17], 103%; in [7] it was 97.2%; in test [20], 86.6%. Besides, the Maximum binding capacity in [6] was found to be 12.1 mg; in test [23] it was 12.1 mg; in test [8], 10.9 mg; in test [26] it was 10.6 mg.
